Assay results from patent US8722052B2, “Vaccinia virus protein A46 peptide and use thereof” (priority 2008, dated 2014).
“Also recorded” adds a separate entry of the source. Square brackets hold non-standard residues; d marks the D form. Ends that are not written are not given here.

Target: T1, TLR4 (Mus musculus, UniProt Q9QUK6)
T1 sequence (Q9QUK6 26-835): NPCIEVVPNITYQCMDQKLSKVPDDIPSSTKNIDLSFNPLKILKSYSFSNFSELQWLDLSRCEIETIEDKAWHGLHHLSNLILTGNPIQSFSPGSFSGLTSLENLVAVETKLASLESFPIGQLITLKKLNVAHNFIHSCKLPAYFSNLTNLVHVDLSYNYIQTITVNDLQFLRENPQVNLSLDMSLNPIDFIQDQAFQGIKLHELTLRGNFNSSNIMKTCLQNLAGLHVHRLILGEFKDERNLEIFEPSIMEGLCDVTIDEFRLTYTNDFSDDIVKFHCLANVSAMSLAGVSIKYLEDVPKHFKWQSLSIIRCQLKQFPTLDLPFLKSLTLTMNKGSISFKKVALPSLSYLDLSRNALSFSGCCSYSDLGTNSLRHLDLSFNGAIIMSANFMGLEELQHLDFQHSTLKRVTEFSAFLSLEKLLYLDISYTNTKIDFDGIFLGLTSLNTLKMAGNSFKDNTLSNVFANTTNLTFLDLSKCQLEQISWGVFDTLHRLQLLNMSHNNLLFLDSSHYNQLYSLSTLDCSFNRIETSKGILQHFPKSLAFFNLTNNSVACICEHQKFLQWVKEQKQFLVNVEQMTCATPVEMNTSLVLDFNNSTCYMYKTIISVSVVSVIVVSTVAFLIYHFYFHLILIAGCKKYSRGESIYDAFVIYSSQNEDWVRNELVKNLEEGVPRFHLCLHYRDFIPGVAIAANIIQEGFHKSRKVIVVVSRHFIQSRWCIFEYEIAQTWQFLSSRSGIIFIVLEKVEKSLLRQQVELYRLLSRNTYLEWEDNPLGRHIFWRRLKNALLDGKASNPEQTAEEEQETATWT
T1 sequence (Q9JHF9 19-160 partner): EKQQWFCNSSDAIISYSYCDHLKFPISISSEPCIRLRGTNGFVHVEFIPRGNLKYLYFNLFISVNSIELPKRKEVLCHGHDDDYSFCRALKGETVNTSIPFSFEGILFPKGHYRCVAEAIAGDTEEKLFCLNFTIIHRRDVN
Assay: LPS-induced TNFα in immortalised murine macrophages, ELISA
Type: cell-based
Design: endogenous in cells; immortalised murine bone-marrow-derived macrophages
Settings: peptide 1, 5 or 25 μM 1 h before 10 ng/ml LPS, 6 h
Protocol: FIGS. 14A and B are bar charts showing the comparison of the inhibitory effect of the L- and D-forms of A464 on LPS-induced TNFα in primary human and murine cells. PBMC (1×10^6 cells/ml, (A)) or immortalised murine macrophages (1.5×10^5 cells/ml, (B)) were seeded in 96 well plates 24 hours before treatment. L-form and D-form A464 peptides (with the 9R delivery peptide on the C-terminus, SEQ ID NO. 20) were added to the cells at a concentration of 1, 5 or 25 μM 1 hour before stimulating with 10 ng/ml LPS. Supernatants were collected 6 hours after stimulation and assayed for either human (A) or murine (B) TNFα production by ELISA. No peptides were added to the control wells (black bars). Data is representative of at least three experiments each performed in triplicate and is expressed as mean±s.d;
FIGS. 15A and B are bar charts showing the effect of the D-form A464 peptide with the TAT delivery sequence on LPS induced TNFα in primary human and murine cells. PBMC (A) and immortalised murine macrophages (B) were seeded in 96 well plates 24 hours before treatment. D-form of A467 (SEQ ID NO. 37) and A464 (SEQ ID NO. 36) with the TAT delivery sequence were added to the cells at a concentration of 1, 5 or 25 μM 1 hour before stimulating with 10 ng/ml LPS. The peptides were added into the unstimulated control wells at 25 μM. Supernatants were collected 6 hours after stimulation and assayed for either human (A) or murine (B) TNFα production by ELISA. No peptides were added to the control wells (black bars). Data is representative of at least three experiments each performed in triplicate and is expressed as mean±s.d;
FIGS. 16A and B are bar charts showing the effect of attaching 9R to the N-terminus of A464 on LPS-induced TNFα in primary human and murine cells. Immortalised murine macrophages (A) and PBMC (B) were seeded in 96 well plates 24 hours before treatment. L-form of A467 (SEQ ID NO. 39) and A464 (SEQ ID NO. 38) with the 9R-delivery sequence at the N-terminus were added to the cells at a concentration of 1, 5 or 25 μM 1 hour before stimulating with 10 ng/ml LPS. The peptides were added into the unstimulated control wells at […]. Supernatants were collected 6 hours after stimulation and assayed for either murine (A) or human (B) TNFα production by ELISA. No peptides were added to the control wells (black bars). Data is representative of at least three experiments each performed in triplicate and is expressed as mean±s.d;
FIGS. 17A and B are bar charts showing the effect of the D-form A464 with 9R at the N-terminus on LPS-induced TNFα in primary human and murine cells. Immortalised murine macrophages (A) and PBMC (B) were seeded in 96 well plates 24 hours before treatment. D-form of A467 (SEQ ID NO. 39) and A464 (SEQ ID NO. 38) peptides with the 9R-delivery sequence at N-terminus were added to the cells at a concentration of 1, 5 or 25 μM 1 hour before stimulating with 10 ng/ml LPS. The peptides were added into the unstimulated control wells at 25 μM. Supernatants were collected 6 hours after stimulation and assayed for either murine (A) or human (B) TNFα production by ELISA. No peptides were added to the control wells (black bars). Data is representative of at least three experiments each performed in triplicate and is expressed as mean±s.d;
FIGS. 18A and B are bar charts showing the effect of shortened A464 peptides with deletions of N- and C-terminal amino acids on LPS-induced TNFα in murine macrophages. Immortalised murine macrophages were seeded in 96 well plates (1.5×10^5 cells/ml) 24 hours before treatment. A464 peptides with a deletion of one (N-1) (SEQ ID NO. 40) or two (N-2) (SEQ ID NO. 41) amino acids from the N-terminus (A), or three (C-3) (SEQ ID NO. 42) or six (C-6) (SEQ ID NO. 43) amino acids from the C-terminus (B), were added to the cells at a concentration of 1, 5 or 25 μM 1 hour before stimulating with 10 ng/ml LPS. Peptides were added to the control wells at 25 μM. […]

Substance | inhibition of LPS-induced mTNFα production
9RN-A464 (RRRRRRRRRKYSFKLILAEY) [Peptide 9RN-A464] | complete inhibition was observed at 1 μM
D-9RN-A464 ([dR][dR][dR][dR][dR][dR][dR][dR][dR][dK][dY][dS][dF][dK][dL][dI][dL][dA][dE][dY]) [Peptide D-9RN-A464] | no inhibition at 1 μM
KYSFKLILAEYRRRRRRRRR [Peptide A464] | significant inhibition of TLR4 by A464 (SEQ ID No. 20) at 1 μM; also recorded: complete inhibition at 1
